B1: LINE1-full (parent)
chain: UACGUAGGUGGUUUUCCCCUGAUAGUGCUAAGGGGGCCUGGAAGUUUGGACUGGGCAGAGCUCAACACAGCGUGGCAAAGUGGCUGUGGCUAGACUGCCUCUCUGGAUUCCUCGUCACUCAGCAGGGCAUCUCUGAGAGAAAUGCC

Variants of: B1
Assay: self-cleavage, relative activity (ratio to wild type); higher = more cleavage; in vitro, sequencing; the parent is a self-cleaving ribozyme

**Q.** For UACGAAGGUGGUUUUCCCCUGAUAGAGCUAAGGGGGCCUGGAAGUUUGGACUGGGCAGAGCUCAACACAGCGUGGCAAAGUGGCUGUGGCUAGACUGCCUCUCUGGAUUCCUCGUCACUCAGCAGGGCAUCUCUGAGAGAAAUGCC [U5A U26A], which self-cleavage is on record?
**A.** The self-cleavage was 1.37.

**Q.** For UACGAAGGUGGUUUUCCCCUGAUAGUGCUAAGGGGGCCUGGAAGUUUGGACAGGGCAGAGCUCAACACAGCGUGGCAAAGUGGCUGUGGCUAGACUGCCUCUCUGGAUUCCUCGUCACUCAGCAGGGCAUCUCUGAGAGAAAUGCC [U5A U52A], which self-cleavage is on record?
**A.** The self-cleavage was 0.52.

**Q.** With UACGAAGGUGGUUUUCCCCUGAUAGUGCUAAGGGGGCCUGGAAGUUUGGACUGGGCAGAGCUCAACACAGCGUGGCAAAGUGGCUGUGGCUAGACUGCCUCUCUGGAUUCCUCGUCACUCAGCAGGGCUUCUCUGAGAGAAAUGCC [U5A A129U] as the variant, how does the self-cleavage read?
**A.** Its self-cleavage is 1.47.

**Q.** Which self-cleavage does the source give for UACGCGGGUGGUUUUCCCCUGAUAGUGCUAAGGGGGCCUGGAAGUUUGGACUGGGCAGAGCUCAACACAGCGUGGCAAAGUGGCUGUGGCUAGACUGCCUCUCUGGAUUCCUCGUCACUCAGCAGGGCAUCUCUGAGAGAAAUGCC [U5C A6G] here?
**A.** Its self-cleavage is 0.65.

**Q.** Which self-cleavage does the source give for UACGAAGGUGGUUUUCCCCUGAUAGUGCUAAGGGGGCCUGGAAGUUUGGACUGGGCAGAGCUCAACACAGCGUGGCAAAGUGGCUGUGGCUAGACUGCCUCUCUGGAUUCCUCGUCACUCAGCUGGGCAUCUCUGAGAGAAAUGCC [U5A A124U] here?
**A.** The self-cleavage was 1.2.

**Q.** Which self-cleavage does the source give for UACGAAGGUGGUUUUCCCCUGAUAGUGCUAAAGGGGCCUGGAAGUUUGGACUGGGCAGAGCUCAACACAGCGUGGCAAAGUGGCUGUGGCUAGACUGCCUCUCUGGAUUCCUCGUCACUCAGCAGGGCAUCUCUGAGAGAAAUGCC [U5A G32A] here?
**A.** Its self-cleavage is 0.93.

**Q.** Which self-cleavage does the source give for UACGAAGGUGGUUUUCCCCUGAUAGUGCUAAGGGGGCCUGGAAGUUUGGACUGGGCAGAGCUCAACACAGCGUGGCAAAGUGGCUGUGGCUAGACUGCCUCUCUGGAUUCCUCGUCACUCAGCAUGGCAUCUCUGAGAGAAAUGCC [U5A G125U] here?
**A.** The self-cleavage was 0.15.

**Q.** For UACGAAGGUGGUUUUCCCCUGAUAGUGCUAAGGGGGCCUAGAAGUUUGGACUGGGCAGAGCUCAACACAGCGUGGCAAAGUGGCUGUGGCUAGACUGCCUCUCUGGAUUCCUCGUCACUCAGCAGGGCAUCUCUGAGAGAAAUGCC [U5A G40A], which self-cleavage is on record?
**A.** The self-cleavage was 1.01.

**Q.** For UACGAAGGUGGUUUUCCCCUGAUAGUGCUAAGGGGGCCUGGAAGUUAGGACUGGGCAGAGCUCAACACAGCGUGGCAAAGUGGCUGUGGCUAGACUGCCUCUCUGGAUUCCUCGUCACUCAGCAGGGCAUCUCUGAGAGAAAUGCC [U5A U47A], which self-cleavage is on record?
**A.** The self-cleavage was 0.59.

**Q.** For UACGAAGGUGGUUUUCCCCUGAUAGUGCUAAGGGGGCCUGGAAGUUUGGACUGGGCAGAGCUCAACACAGCGUGGCAAAGUGGCGGUGGCUAGACUGCCUCUCUGGAUUCCUCGUCACUCAGCAGGGCAUCUCUGAGAGAAAUGCC [U5A U85G], which self-cleavage is on record?
**A.** Its self-cleavage is 0.16.

**Q.** For UACGAAGGUGGUUUUCCCCUGAUAGUGCUAAGGGGGCCUGGAAGUUUGGACUGGGCAGAGCUCAACACAGCGUGGCAAAGUGGCCGUGGCUAGACUGCCUCUCUGGAUUCCUCGUCACUCAGCAGGGCAUCUCUGAGAGAAAUGCC [U5A U85C], which self-cleavage is on record?
**A.** The self-cleavage was 0.2.

**Q.** For UACGAAGGUGGUUUUCCCCUGAUAGUGCUAAGGGGGCCAGGAAGUUUGGACUGGGCAGAGCUCAACACAGCGUGGCAAAGUGGCUGUGGCUAGACUGCCUCUCUGGAUUCCUCGUCACUCAGCAGGGCAUCUCUGAGAGAAAUGCC [U5A U39A], which self-cleavage is on record?
**A.** Its self-cleavage is 0.8.

**Q.** With UACGAAGGUGGUUUUCCCCUGAUAGUGCUAAGGGGGCCUGGAAGUUUGGACUGGGCAGAGCUCAACACAGCGUGGCAAAGUGGCUGUGGCUAGACCGCCUCUCUGGAUUCCUCGUCACUCAGCAGGGCAUCUCUGAGAGAAAUGCC [U5A U96C] as the variant, how does the self-cleavage read?
**A.** The self-cleavage was 0.45.

**Q.** With UACGAAGGUGGUUUUCCCCUGAUAGUGCUAAGGGGGCCUGGAAGUUUGGACUGGGCAGAGCUCAACACAGCGUGGCAAAGUGGCUGUGGCUAGACUGCCUCUCUGGAUUCCUCGUCACUCAGCAGGGCAUCUCUGAGAGAGAUGCC [U5A A141G] as the variant, how does the self-cleavage read?
**A.** Its self-cleavage is 1.23.

**Q.** Which self-cleavage does the source give for UACGAAGGUGGUUUUCCCCUGAUAGUGCUAAGGGGGCCUGGAAGUUUGGACUGGGCAGAGCUCAACACAGCGUGGCAAAGUGGCUGUGGCUAGACUGCCUCUCUGGAUUCCUCGUCACUCAGCAGGGCAUCUCUGAGGGAAAUGCC [U5A A138G] here?
**A.** Its self-cleavage is 0.75.

**Q.** For UACGAAGGUGGUUUUCCCCUGAUAGUGCUAAGGGGGCCUGGAAGUUUGGACUGGGCAGAGCUCAACACAGCGUGGCAAAGUGGCUGUGGCUAGACUGCCUCUCUGGAUUCCUCGCCACUCAGCAGGGCAUCUCUGAGAGAAAUGCC [U5A U115C], which self-cleavage is on record?
**A.** Its self-cleavage is 0.5.

**Q.** For UACGAAGGUGGUUUUCCCCUGAUAGUGCUAAGGGGGCCUGGAAGUCUGGACUGGGCAGAGCUCAACACAGCGUGGCAAAGUGGCUGUGGCUAGACUGCCUCUCUGGAUUCCUCGUCACUCAGCAGGGCAUCUCUGAGAGAAAUGCC [U5A U46C], which self-cleavage is on record?
**A.** The self-cleavage was 1.03.

**Q.** Which self-cleavage does the source give for UACGAAGGUGGUUUUCCCCUGAUAGUGCUAAGGGGGCCUGGAAGUAUGGACUGGGCAGAGCUCAACACAGCGUGGCAAAGUGGCUGUGGCUAGACUGCCUCUCUGGAUUCCUCGUCACUCAGCAGGGCAUCUCUGAGAGAAAUGCC [U5A U46A] here?
**A.** Its self-cleavage is 0.82.

**Q.** For UACGAAGGUGGUUUUCCCCUGAUAGUGCUAAGGGGGCCUGGAAGUUUGGACUGGGCAGAGCUCAACACAGCGUGGCAAAGUGGCUGUGGCUAGACUGCCUCUCUGGAUUCCUCGUCACUCAGCAGGGCAUCUCUGAGAGGAAUGCC [U5A A140G], which self-cleavage is on record?
**A.** Its self-cleavage is 0.88.

**Q.** Which self-cleavage does the source give for UACGAAGGUGGUUUUCCCCUGAUAGUGCUAAGGGGCCCUGGAAGUUUGGACUGGGCAGAGCUCAACACAGCGUGGCAAAGUGGCUGUGGCUAGACUGCCUCUCUGGAUUCCUCGUCACUCAGCAGGGCAUCUCUGAGAGAAAUGCC [U5A G36C] here?
**A.** The self-cleavage was 1.16.

From the RNAGym collection of RNA variant scans (doi:10.7554/elife.90254)
